Publication PMC5353710, “Structural insights into the γ-lactamase activity and substrate enantioselectivity of an isochorismatase-like hydrolase from Microbacterium hydrocarbonoxydans” (Scientific Reports, 2017)

Columns and labels:
purified protein [1] = substrate: O=C1N[C@@H]2C=C[C@H]1C2; test: purified protein; conditions: 50 mM Tris-HCl pH 7.5, 25 °C, substrate 5 to 200 mM
purified protein [2] = substrate: O=C1N[C@H]2C=C[C@@H]1C2; test: purified protein; conditions: 50 mM Tris-HCl pH 7.5, 25 °C, substrate 5 to 200 mM

B1: MhIHL (Mh33H4-5540) (Microbacterium hydrocarbonoxydans) (protein)
chain: MAAPRRTVVLAIDLQAGVTPGCFDEEGVLSRAAALVERARAGGVPVVWVHHDPVGVGTPEWELAAPLHRAEGEPLVRKNYRDSFADTTLRETLDELGATHLVITGAQSDFCVRTTMQRAAAEGYDVTLVSDAHTTVDTEWEGVRISGEQIVAHTNMYFSGLRYPGQEFVIATHDHVAL
**Q.** How did the Km (purified protein [1]) turn out when B1 was run?
**A.** The Km was 12.9 mM.

**Q.** And the kcat (purified protein [1])?
**A.** Its kcat is 203 s⁻¹.

**Q.** And the kcat/Km (purified protein [1])?
**A.** The kcat/Km was 15800 M⁻¹ s⁻¹.

**Q.** What about the Km (purified protein [2]) of the same protein?
**A.** Its Km is 34.2 mM.

**Q.** What about the kcat (purified protein [2]) of the same protein?
**A.** The kcat was 19.8 s⁻¹.

**Q.** What about the kcat/Km (purified protein [2]) of the same protein?
**A.** Its kcat/Km is 580 M⁻¹ s⁻¹.
